Target: lrp8_human LRP8 (UniProt Q14114)
Sequence of UniProt Q14114 (Q14114 whole entry): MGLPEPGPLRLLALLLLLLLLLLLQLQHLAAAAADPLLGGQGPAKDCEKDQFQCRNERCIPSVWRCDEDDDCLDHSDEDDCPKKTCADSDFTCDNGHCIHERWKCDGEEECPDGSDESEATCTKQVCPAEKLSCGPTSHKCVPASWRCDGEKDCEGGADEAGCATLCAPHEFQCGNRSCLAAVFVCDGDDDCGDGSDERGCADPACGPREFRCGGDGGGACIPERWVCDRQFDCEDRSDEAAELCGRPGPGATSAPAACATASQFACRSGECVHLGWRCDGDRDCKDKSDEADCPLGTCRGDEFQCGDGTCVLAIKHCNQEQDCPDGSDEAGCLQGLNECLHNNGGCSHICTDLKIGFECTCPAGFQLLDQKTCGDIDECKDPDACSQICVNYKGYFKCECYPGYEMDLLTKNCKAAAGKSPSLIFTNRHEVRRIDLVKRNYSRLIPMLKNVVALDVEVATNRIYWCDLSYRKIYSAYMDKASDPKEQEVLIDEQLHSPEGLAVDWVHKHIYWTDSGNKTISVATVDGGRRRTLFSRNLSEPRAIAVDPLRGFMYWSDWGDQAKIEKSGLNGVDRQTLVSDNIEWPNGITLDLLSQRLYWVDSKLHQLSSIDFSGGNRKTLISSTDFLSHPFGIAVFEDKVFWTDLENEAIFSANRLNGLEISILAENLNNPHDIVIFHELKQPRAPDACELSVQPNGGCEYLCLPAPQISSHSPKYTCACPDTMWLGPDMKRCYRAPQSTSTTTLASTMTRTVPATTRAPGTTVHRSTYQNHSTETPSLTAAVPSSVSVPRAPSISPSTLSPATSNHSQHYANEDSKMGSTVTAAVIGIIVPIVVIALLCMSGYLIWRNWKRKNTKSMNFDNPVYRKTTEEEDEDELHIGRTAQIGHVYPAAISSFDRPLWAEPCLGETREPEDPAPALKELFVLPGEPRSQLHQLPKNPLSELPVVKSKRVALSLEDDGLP

## Reelin (Mus musculus), Q60841 K2360A
  effect of a mutation on the interaction: disrupting interaction

## Reelin (Mus musculus), Q60841 K2467A
  effect of a mutation on the interaction: disrupting interaction strength

## Reelin (Mus musculus), Q60841 K2467R
  effect of a mutation on the interaction: disrupting interaction strength
